Reference: WO2012019024A2 (dated 2012)
Blank lines part the entries; values can stand above or below the molecule they belong to.

Tests used:
human HER3 [1] = molecular target: T1, human HER3 (human, UniProt P21860 20-1342); test: cell-based or functional assay
human HER3 [2] = molecular target: T1, human HER3; test: flow cytometry competition on SKBR3 cells, antibody varied against 10 nM biotinylated HRG1β1 ligand
human HER3 [3] = molecular target: T1, human HER3; test: Kd named as the concentration of the biotinylated reference antibody in the flow cytometry competition assay
human HER3 [4] = molecular target: T1, human HER3; test: flow cytometry on SKBR3 cells (endogenous HER3), apparent Kd
[5] = molecular target: macaque HER3 extracellular domain on 300-19 cells (pSRa-chiHER3) (macaque; human); test: flow cytometry on 300-19 cells expressing maHER3 extracellular domain, apparent Kd
human HER3 [6] = molecular target: T1, human HER3; test: flow cytometry on huHER3-overexpressing 300-19 cells, apparent Kd (EC50 of the binding curve)
[7] = molecular target: macaque HER3 extracellular domain on 300-19 cells (pSRa-chiHER3) (macaque; human); test: cell-based or functional assay
human HER3 [8] = molecular target: T1, human HER3; test: flow cytometry on SKBR3 cells, apparent Kd
Target sequence in this assay (P21860 20-1342 limits assumed): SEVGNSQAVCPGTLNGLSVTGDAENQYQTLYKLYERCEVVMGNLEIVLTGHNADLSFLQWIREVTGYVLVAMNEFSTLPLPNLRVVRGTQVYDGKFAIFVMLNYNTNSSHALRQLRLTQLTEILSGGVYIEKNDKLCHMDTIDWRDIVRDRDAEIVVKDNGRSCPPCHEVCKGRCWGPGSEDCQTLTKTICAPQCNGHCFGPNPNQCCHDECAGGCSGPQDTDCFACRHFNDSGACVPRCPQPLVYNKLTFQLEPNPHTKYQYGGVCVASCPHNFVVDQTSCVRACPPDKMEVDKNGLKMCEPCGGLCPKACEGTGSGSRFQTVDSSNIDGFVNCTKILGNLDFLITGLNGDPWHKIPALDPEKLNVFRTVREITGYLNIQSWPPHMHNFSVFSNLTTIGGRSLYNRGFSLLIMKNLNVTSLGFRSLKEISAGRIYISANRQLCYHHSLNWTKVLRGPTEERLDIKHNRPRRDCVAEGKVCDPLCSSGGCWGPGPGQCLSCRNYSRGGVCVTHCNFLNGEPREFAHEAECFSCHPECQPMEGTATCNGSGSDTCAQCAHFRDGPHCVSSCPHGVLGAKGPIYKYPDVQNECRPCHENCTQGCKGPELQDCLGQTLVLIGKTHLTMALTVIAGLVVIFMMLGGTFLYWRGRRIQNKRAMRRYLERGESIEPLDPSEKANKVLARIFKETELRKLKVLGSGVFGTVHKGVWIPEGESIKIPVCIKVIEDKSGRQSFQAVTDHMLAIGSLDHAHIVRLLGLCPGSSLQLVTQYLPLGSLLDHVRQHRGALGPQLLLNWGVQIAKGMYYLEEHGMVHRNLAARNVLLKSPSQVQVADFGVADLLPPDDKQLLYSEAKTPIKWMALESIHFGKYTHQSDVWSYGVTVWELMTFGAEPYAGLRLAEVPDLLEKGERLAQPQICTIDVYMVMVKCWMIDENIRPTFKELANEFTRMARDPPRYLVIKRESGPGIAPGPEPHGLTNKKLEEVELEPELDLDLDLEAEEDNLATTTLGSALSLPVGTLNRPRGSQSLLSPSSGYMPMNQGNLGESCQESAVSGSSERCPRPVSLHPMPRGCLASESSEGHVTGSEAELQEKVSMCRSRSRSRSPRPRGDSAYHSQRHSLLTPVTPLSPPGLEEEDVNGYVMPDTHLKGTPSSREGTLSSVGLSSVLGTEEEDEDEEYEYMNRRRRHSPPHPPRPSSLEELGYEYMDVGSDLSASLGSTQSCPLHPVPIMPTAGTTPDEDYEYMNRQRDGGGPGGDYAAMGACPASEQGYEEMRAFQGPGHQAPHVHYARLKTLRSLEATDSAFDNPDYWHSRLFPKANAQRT

[9] = molecular target: macaque HER3 extracellular domain on 300-19 cells (pSRa-chiHER3) (macaque; human); test: flow cytometry on maHER3-overexpressing 300-19 cells, apparent Kd
[10] = molecular target: T2, chL1-S1 chimeric human/murine HER-3 ECD Fc fusion (human; murine, UniProt P21860 20-632); test: ELISA on chL1-S1 Fc (Figure 30)
T2 construct: also called chLl-Sl; chimeric ECD comprising human L1-S1 domains and murine L2-S2 domains; not shown: murine IgG2A hinge, CH2, and CH3 region (pmuFc2ANL vector)
T2 chain: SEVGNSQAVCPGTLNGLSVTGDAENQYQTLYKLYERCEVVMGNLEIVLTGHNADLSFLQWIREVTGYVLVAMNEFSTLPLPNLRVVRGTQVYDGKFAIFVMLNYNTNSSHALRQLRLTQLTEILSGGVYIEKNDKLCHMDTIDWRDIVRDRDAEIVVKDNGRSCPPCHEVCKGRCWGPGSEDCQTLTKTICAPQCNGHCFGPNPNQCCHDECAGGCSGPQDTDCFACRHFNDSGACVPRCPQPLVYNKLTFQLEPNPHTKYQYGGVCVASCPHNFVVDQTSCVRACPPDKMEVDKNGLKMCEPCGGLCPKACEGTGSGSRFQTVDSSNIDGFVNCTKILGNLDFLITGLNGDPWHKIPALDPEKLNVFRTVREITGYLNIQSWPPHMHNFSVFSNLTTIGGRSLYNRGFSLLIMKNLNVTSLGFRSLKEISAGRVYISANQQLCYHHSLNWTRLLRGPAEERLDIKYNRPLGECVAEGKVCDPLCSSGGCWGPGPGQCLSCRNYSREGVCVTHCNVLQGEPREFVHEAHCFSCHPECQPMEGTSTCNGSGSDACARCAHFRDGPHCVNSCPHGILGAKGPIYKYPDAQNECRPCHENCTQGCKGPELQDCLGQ

[11] = molecular target: T3, human HER-3 ECD Fc protein (human; murine, UniProt P21860 20-632); test: ELISA on human HER-3 ECD Fc (Figure 28)
T3 construct: also called Fc fusion of human HER-3; not shown: murine IgG2A hinge, CH2, and CH3 region (pmuFc2ANL vector)

[12] = molecular target: T4, murine HER-3 ECD Fc fusion (murine, UniProt Q61526 20-632); test: ELISA on murine HER-3 ECD Fc (Figure 29)
T4 construct: 'similarly constructed' to the human fusion; also called murine HER-3-Fc; not shown: murine IgG2A hinge, CH2, and CH3 region (pmuFc2ANL vector)

human HER3 [13] = molecular target: T1, human HER3; test: flow cytometry on huHER3-expressing 300-19 cells (Figure 15)
human HER3 [14] = molecular target: T1, human HER3; test: flow cytometry on huHER3-expressing 300-19 cells
human HER3 [15] = molecular target: T1, human HER3; test: flow cytometry competition on SKBR3 cells, naked antibody varied, competitor biotinylated muHER3-8
human HER3 [16] = molecular target: T1, human HER3; test: flow cytometry on huHER3-expressing 300-19 cells, apparent Kd, comparison of murine and humanized antibody
human HER3 [17] = molecular target: T1, human HER3; test: flow cytometry competition on SKBR3 cells, competitor biotinylated muHER3-8

Chain of macaque HER3 extracellular domain on 300-19 cells (pSRa-chiHER3) (macaque; human) (P21860 644-1342, form in doubt): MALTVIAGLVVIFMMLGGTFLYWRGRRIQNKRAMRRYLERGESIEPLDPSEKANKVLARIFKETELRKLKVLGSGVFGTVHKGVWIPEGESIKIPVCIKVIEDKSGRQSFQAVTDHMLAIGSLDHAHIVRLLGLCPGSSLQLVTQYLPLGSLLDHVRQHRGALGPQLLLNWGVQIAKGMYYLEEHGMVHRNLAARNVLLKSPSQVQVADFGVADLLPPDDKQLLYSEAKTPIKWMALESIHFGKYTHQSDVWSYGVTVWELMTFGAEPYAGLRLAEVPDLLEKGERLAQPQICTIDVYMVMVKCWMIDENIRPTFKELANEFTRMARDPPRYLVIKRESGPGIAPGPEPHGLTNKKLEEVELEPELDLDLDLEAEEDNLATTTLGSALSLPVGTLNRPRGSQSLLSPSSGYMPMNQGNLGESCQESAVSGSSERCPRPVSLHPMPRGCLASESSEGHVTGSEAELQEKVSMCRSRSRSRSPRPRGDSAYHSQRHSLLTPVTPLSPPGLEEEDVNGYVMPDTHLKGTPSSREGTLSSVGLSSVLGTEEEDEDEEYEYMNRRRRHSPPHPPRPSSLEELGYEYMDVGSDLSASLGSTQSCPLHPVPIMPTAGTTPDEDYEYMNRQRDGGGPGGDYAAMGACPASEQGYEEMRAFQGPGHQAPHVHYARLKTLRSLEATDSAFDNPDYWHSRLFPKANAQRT

- HRG1β1-induced AKT phosphorylation (pAKT level, % of ligand-only control), whole cell ELISA, MCF7 cells, 10 µg/ml antibody (human HER3 [1]): < 50%
- HRG1β1-induced HER3 phosphorylation (pHER3 level, % of ligand-only control), whole cell ELISA, MCF7 cells, 10 µg/ml antibody (human HER3 [1]): < 20%
- Kd (human HER3 [4]): 52 pM
- Kd [5]: 42 pM
- Kd (human HER3 [6]): 68 pM
B1: muHER3-10 antibody (antibody, mouse IgG1, V domains shown)
VH: EVQLQQSGPELVKPGVSMKISCKASGYSFTDYTMNWVKQSHGKNLEWIGLINPYNDITAYNQKFKGKATLSVNKSSSTAYMELLSLTSEDSAVYYCARRGPRGAWFAYWGQGTLVTVSA
VL: NIVLTQSPASLAVSLGQRATISCRASTSVYNYGNSFMHWYQQMPGQPPKLLIYLASNLESGVPARFSGSGSRTDFTLTIDPVEADDAATYYCQQNSEDPWTFGGGTKLEIKR
notes: also called HER3-10 (murine)

- Kd (human HER3 [8]): 490 pM
- Kd [9]: 290 pM
B2: huHER3-8-SMCC-DM1 conjugate (antibody, V domains shown)
VH: QVQLQESGPGLVKPSQSLSLTCTVTGSSITSDYAWNWIRQHPGNKLEWMGFISYSGSTSYNPSLKSRISITRDTSKNQFFLHLSSVTAADTATYYCSRRLGRLYYFDYWGQGTLLTVSS
VL: EIVMTQSPATLSVTPGDRVSLSCRASQSINDYLHWYQQKPGQSPRLLIKFASHSISGIPDRFSGSGSGSDFTLTISSVEPEDVGVYYCQNGHSFPWTFGGGTKLEIKR
modifications: SMCC-DM1 maytansinoid linked to the antibody, 3.5-4 DM1 molecules per antibody; attachment residues and chain not stated
notes: Immunoconjugate of huHER3-8 (v.1.00) with human constant regions; also called huHER3-8-SMCC-DMl
- in vitro cytotoxicity EC50 (WST-8 surviving fraction), maHER3-overexpressing 300-19 cells [7]: 59 pM
- in vitro cytotoxicity EC50 (WST-8 surviving fraction), huHER3-overexpressing 300-19 cells (human HER3 [1]): 170 pM

- Kd (human HER3 [8]): 290 pM
- Kd [9]: 230 pM
B4: huHER3-8-SPDB-DM4 conjugate (antibody, V domains shown)
VH: QVQLQESGPGLVKPSQSLSLTCTVTGSSITSDYAWNWIRQHPGNKLEWMGFISYSGSTSYNPSLKSRISITRDTSKNQFFLHLSSVTAADTATYYCSRRLGRLYYFDYWGQGTLLTVSS
VL: EIVMTQSPATLSVTPGDRVSLSCRASQSINDYLHWYQQKPGQSPRLLIKFASHSISGIPDRFSGSGSGSDFTLTISSVEPEDVGVYYCQNGHSFPWTFGGGTKLEIKR
modifications: SPDB-DM4 maytansinoid linked to the antibody, 3.5-4 DM4 molecules per antibody; attachment residues and chain not stated
notes: Immunoconjugate of huHER3-8 (v.1.00) with human constant regions
- in vitro cytotoxicity EC50 (WST-8 surviving fraction), maHER3-overexpressing 300-19 cells [7]: 99 pM
- in vitro cytotoxicity EC50 (WST-8 surviving fraction), huHER3-overexpressing 300-19 cells (human HER3 [1]): 180 pM

- HRG1β1-induced AKT phosphorylation (pAKT level, % of ligand-only control), whole cell ELISA, MCF7 cells, 10 µg/ml antibody (human HER3 [1]): < 50%
- HRG1β1-induced HER3 phosphorylation (pHER3 level, % of ligand-only control), whole cell ELISA, MCF7 cells, 10 µg/ml antibody (human HER3 [1]): < 20%
- HRG1β1-induced MCF7 cell proliferation (WST-8, % of ligand-only control), 10 µg/ml antibody (human HER3 [1]): 40%
- Kd (human HER3 [4]): 310 pM
- Kd [5]: 240 pM
- Kd (human HER3 [6]): 230 pM
- EC50 (human HER3 [15]): 760 pM
- EC50 (human HER3 [2]): 290 pM
- Kd (human HER3 [3]): 200 pM
B8: muHER3-8 antibody (antibody, mouse IgG1, V domains shown)
VH: DVQLQESGPGLVTPSQSLSLTCTVTGSSITSDYAWNWIRQFPGNKLEWMGFISYSGSTSYNPSLKSRISITRDTSKNQFFLHLSSVTSEDTATYYCSRKLGRLYYFDYWGQGTTLTVSS
VL: DIVMTQSPATLSVTPGDRVSLSCRASQSINDYLHWYQQKSHESPRLLIKFASHSISGIPSRFSGSGSGSDFTLTINSVEPEDVGVYYCQNGHSFPWTFGGGTKLEIKR
notes: also called HER3-8 (murine)

- HRG1β1-induced AKT phosphorylation (pAKT level, % of ligand-only control), whole cell ELISA, MCF7 cells, 10 µg/ml antibody (human HER3 [1]): < 50%
- HRG1β1-induced HER3 phosphorylation (pHER3 level, % of ligand-only control), whole cell ELISA, MCF7 cells, 10 µg/ml antibody (human HER3 [1]): < 20%
- Kd (human HER3 [4]): 210 pM
- Kd [5]: 140 pM
- Kd (human HER3 [6]): 300 pM
- EC50 (human HER3 [2]): 320 pM
B10: muHER3-3 antibody (antibody, mouse IgG1, kappa, V domains shown)
VH: QVQLQQPGAELVMPGASVKMSCKASGYTFTDYWIHWVKQRPGQGLEWIGAIDTDTYTSYNQQFKGKATLTVDESSSTAYMQLSSLTSEDSAVYYCARSLLRLLYFDYWGQGTTLTVSS
VL: DIVMTQSPATLSVTPGDRVSLSCRASQSITDYLHWYQQKSHESPRLLIKFASQSISGIPSRFSGSGSGSDFTLSINSVEPEDVGVYYCQNGHSFPLTFGAGTKLELKR
notes: also called HER3-3 (murine)

More lines, now with the values behind:

Molecule: chKTI-SMCC-DM1 conjugate (antibody)
- in vitro cytotoxicity EC50 (WST-8 surviving fraction), huHER3-overexpressing 300-19 cells (human HER3 [1]): 53000 pM

Molecule: U3-Pharma/Amgen's U1-59 antibody
- EC50 (human HER3 [2]): 2200 pM
- Kd (human HER3 [3]): 1000 pM

Molecule: chKTI-SPDB-DM4 conjugate (antibody)
- in vitro cytotoxicity EC50 (WST-8 surviving fraction), huHER3-overexpressing 300-19 cells (human HER3 [1]): 4400 pM

B3: huHER3-8-PEG4-mal-DM1 conjugate (antibody, V domains shown)
VH: QVQLQESGPGLVKPSQSLSLTCTVTGSSITSDYAWNWIRQHPGNKLEWMGFISYSGSTSYNPSLKSRISITRDTSKNQFFLHLSSVTAADTATYYCSRRLGRLYYFDYWGQGTLLTVSS
VL: EIVMTQSPATLSVTPGDRVSLSCRASQSINDYLHWYQQKPGQSPRLLIKFASHSISGIPDRFSGSGSGSDFTLTISSVEPEDVGVYYCQNGHSFPWTFGGGTKLEIKR
modifications: PEG4-mal-DM1 maytansinoid linked to the antibody, 3.5-4 maytansinoid molecules per antibody; attachment residues and chain not stated
notes: Immunoconjugate of huHER3-8 (v.1.00) with human constant regions; also called huHER3-8-PEG-mal-DM1; huHER3-8-PEG4-Mal-DMl
- in vitro cytotoxicity EC50 (WST-8 surviving fraction), maHER3-overexpressing 300-19 cells [7]: 45 pM
- Kd (human HER3 [8]): 270 pM
- Kd [9]: 280 pM

B5: huHER3-3 antibody (antibody, V domains shown)
VH: QVQLVQPGAEVVKPGASVKMSCKASGYTFTDYWIHWVKQRPGQGLEWIGAIDTDTYTSYNQKFQGKATLTVDESSSTAYMQLSSLTSEDSAVYYCARSLLRLLYFDYWGQGTTLTVSS
VL: EIVMTQSPATLSVTPGDRVTLSCRASQSITDYLHWYQQKPGQSPRLLIKFASQSISGIPDRFSGSGSGSDFTLSISSVEPEDVGVYYCQNGHSFPLTFGQGTKLELKR
notes: Recombinant humanized antibody with human constant regions (pAbGlNeo / pAbKZeo plasmids), expressed in HEK 293T; also called humanized (resurfaced) HER3-3
- binding result [10]: binds
- binding result [11]: binds
- binding result [12]: binds
- binding result (human HER3 [13]): binds

B6: huHER3-3-SMCC-DM1 conjugate (antibody, V domains shown)
VH: QVQLVQPGAEVVKPGASVKMSCKASGYTFTDYWIHWVKQRPGQGLEWIGAIDTDTYTSYNQKFQGKATLTVDESSSTAYMQLSSLTSEDSAVYYCARSLLRLLYFDYWGQGTTLTVSS
VL: EIVMTQSPATLSVTPGDRVTLSCRASQSITDYLHWYQQKPGQSPRLLIKFASQSISGIPDRFSGSGSGSDFTLSISSVEPEDVGVYYCQNGHSFPLTFGQGTKLELKR
modifications: SMCC-DM1 maytansinoid linked to the antibody, 3.5-4 DM1 molecules per antibody; attachment residues and chain not stated
- in vitro cytotoxicity EC50 (WST-8 surviving fraction), huHER3-overexpressing 300-19 cells (human HER3 [1]): 190 pM

B7: huHER3-8v.1.00 antibody (antibody, V domains shown)
VH: QVQLQESGPGLVKPSQSLSLTCTVTGSSITSDYAWNWIRQHPGNKLEWMGFISYSGSTSYNPSLKSRISITRDTSKNQFFLHLSSVTAADTATYYCSRRLGRLYYFDYWGQGTLLTVSS
VL: EIVMTQSPATLSVTPGDRVSLSCRASQSINDYLHWYQQKPGQSPRLLIKFASHSISGIPDRFSGSGSGSDFTLTISSVEPEDVGVYYCQNGHSFPWTFGGGTKLEIKR
notes: Recombinant humanized antibody with human constant regions; also called huHER3-8 naked antibody
- binding result [10]: binds
- Kd (human HER3 [8]): 140 pM
- fold increase of binding affinity against muHER3-8 (human HER3 [14]): ~2 fold
- Kd [9]: 190 pM
- EC50 (human HER3 [15]): 240 pM
- Kd (human HER3 [16]): 120 pM

B9: huHER3-8v.1.01 antibody (antibody, V domains shown)
VH: QVQLQESGPGLVKPSQSLSLTCTVTGSSITSDYAWNWIRQHPGNKLEWMGFISYSGSTSYNPSLKSRISITRDTSKNQFFLHLSSVTAADTATYYCSRKLGRLYYFDYWGQGTLLTVSS
VL: EIVMTQSPATLSVTPGDRVSLSCRASQSINDYLHWYQQKPGQSPRLLIKFASHSISGIPDRFSGSGSGSDFTLTISSVEPEDVGVYYCQNGHSFPWTFGGGTKLEIKR
notes: Recombinant humanized antibody with human constant regions; murine lysine 95 of heavy chain CDR3 retained
- binding result (human HER3 [17]): binds
